The molecules below were run on CyPPO16 (assay: PPO enzyme activity of MBP-fused CyPPO16 wild type and variants). Conditions: PPO enzyme activity relative to wild type; MBP-fused protein, 50 μM protoporphyrinogen IX, room temperature, 30 min.
Type: biochemical, Spirulina subsalsa
Description: Thus, PPO proteins of wild type and variants were expressed as fused to MBP and were used for experiments.
The following process for purification of PPO protein was performed in a 4° C. cold room. Amylose resin (NEB) was packed to 1.5×15 cm column (Bio-Rad, Econo Columns 1.5×15 cm, glass chromatography column, max. vol), and the obtained protein extracts were loaded to the column at a flow rate of 0.2 ml/min. The column was washed with 3 column volumes of buffer and the presence of protein in the washing solution was examined. When the protein was no longer detected, the washing procedure was terminated. Then, the MBP-PPO protein was eluted with approximately 2 column volumes of buffer containing 20 mM maltose. The protein concentration of each eluent was determined and the elution was stopped when the protein was no longer detected. Ten microliter of each fraction was investigated for protein quantification and SDS-PAGE analysis. The highly pure fractions of PPO protein variants were used for the enzyme assay.
Since protoporphyrinogen IX, a substrate of PPO protein, was not commercially available, it was chemically synthesized in the laboratory. Overall process was performed in dark under nitrogen stream. […] of protoporphyrin IX was dissolved in 20 ml of 20% (v/v) EtOH, and stirred under dark condition for 30 minutes. The obtained protoporphyrin IX solution was put into a 15 ml screw tube in an amount of 800 μl, and flushed with nitrogen gas for 5 minutes. To this, 1.5 g of sodium amalgam was added and vigorously shaken for 2 minutes. The lid was opened to exhaust hydrogen gas in the tube. Thereafter, the lid was closed and incubated for 3 minutes. The protoporphyrinogen IX solution was filtered using syringe and cellulose membrane filter. […] To determine the enzyme activity of PPO protein, a reaction mixture was prepared with the following composition (based on 10 ml): 50 mM Tris-Cl (pH 8.0); 50 mM NaCl; 0.04% (v/v) Tween 20; 40 mM glucose (0.072 g); 5 units glucose oxidase (16.6 mg); and 10 units catalase (1 μl).
Hundred and eighty microliters of a reaction mixture containing the purified PPO protein were placed in 96 well plates and 20 μl of […] were added. […] The reaction proceeded at room temperature for 30 min and the fluorescence of protoporphyrin IX was measured using Microplate reader (Sense, Hidex) (excitation: 405 nm; emission: 633 nm). […] To this, 2.7 N HCl was added, and the absorbance at 408 nm was measured. A standard curve was generated using standard protoporphyrin IX, and PPO activity was measured by calibration of protoporphyrin IX using the standard curve of protoporphyrin IX.
Activities of variants were presented relatively compared to that of wild type.

Row | Molecule | Activity (%)
1 | V305M: CyPPO16 variant (protein, Synthetic (Protoporphyrinogen IX oxidase (CyPPO16) of Spirulina subsalsa), CyPPO16 variant) MLDSLIVGAGISGLSAAHTLQKQQTQFLVTESQGRVGGNITTNRQGDYLWEEGPNSFAPTEDLLRLAVEVGLKEDLVFADRRLPRFVYWNQQLHPVPMSPPAALKTQLLSEAGKWRAALGALGFVGGLVGREEETVRQFFTRHLGTEVTERLVAPFVSGVYAGDVDQLSAQAAFRRVFEFAQLGGGLAAGGILARRQAPPKAPPDPSLPETKTGQLGSFREGLEMLPRAIASQLGDRLKLQWRLTHLEITPQQTYLAHFNTPDGPQQIATRTLILTTPAPITADLLKPLTPALHGVLKEIYYPPMACVVLAYPRAASARPLEGFGHLIPRNQGIRTLGTIWSSCLFPGRTPEGEHLLTNFIGGATDPGIAQLDPEEIAQAVHQDLCKILIRPEFTPKILAVRLWKQAIPQYTLGHLQRLATLEQELSKFPGLHILANYTDGVALGDCVKRGVAVAQKIRSRE | 72%
2 | F324V: CyPPO16 variant (protein, Synthetic (Protoporphyrinogen IX oxidase (CyPPO16) of Spirulina subsalsa), CyPPO16 variant) MLDSLIVGAGISGLSAAHTLQKQQTQFLVTESQGRVGGNITTNRQGDYLWEEGPNSFAPTEDLLRLAVEVGLKEDLVFADRRLPRFVYWNQQLHPVPMSPPAALKTQLLSEAGKWRAALGALGFVGGLVGREEETVRQFFTRHLGTEVTERLVAPFVSGVYAGDVDQLSAQAAFRRVFEFAQLGGGLAAGGILARRQAPPKAPPDPSLPETKTGQLGSFREGLEMLPRAIASQLGDRLKLQWRLTHLEITPQQTYLAHFNTPDGPQQIATRTLILTTPAPITADLLKPLTPALHGVLKEIYYPPVACVVLAYPRAASARPLEGVGHLIPRNQGIRTLGTIWSSCLFPGRTPEGEHLLTNFIGGATDPGIAQLDPEEIAQAVHQDLCKILIRPEFTPKILAVRLWKQAIPQYTLGHLQRLATLEQELSKFPGLHILANYTDGVALGDCVKRGVAVAQKIRSRE | 23%
3 | R85A: CyPPO16 variant (protein, Synthetic (Protoporphyrinogen IX oxidase (CyPPO16) of Spirulina subsalsa), CyPPO16 variant) MLDSLIVGAGISGLSAAHTLQKQQTQFLVTESQGRVGGNITTNRQGDYLWEEGPNSFAPTEDLLRLAVEVGLKEDLVFADRRLPAFVYWNQQLHPVPMSPPAALKTQLLSEAGKWRAALGALGFVGGLVGREEETVRQFFTRHLGTEVTERLVAPFVSGVYAGDVDQLSAQAAFRRVFEFAQLGGGLAAGGILARRQAPPKAPPDPSLPETKTGQLGSFREGLEMLPRAIASQLGDRLKLQWRLTHLEITPQQTYLAHFNTPDGPQQIATRTLILTTPAPITADLLKPLTPALHGVLKEIYYPPVACVVLAYPRAASARPLEGFGHLIPRNQGIRTLGTIWSSCLFPGRTPEGEHLLTNFIGGATDPGIAQLDPEEIAQAVHQDLCKILIRPEFTPKILAVRLWKQAIPQYTLGHLQRLATLEQELSKFPGLHILANYTDGVALGDCVKRGVAVAQKIRSRE | 94%
4 | F360V: CyPPO16 variant (protein, Synthetic (Protoporphyrinogen IX oxidase (CyPPO16) of Spirulina subsalsa), CyPPO16 variant) MLDSLIVGAGISGLSAAHTLQKQQTQFLVTESQGRVGGNITTNRQGDYLWEEGPNSFAPTEDLLRLAVEVGLKEDLVFADRRLPRFVYWNQQLHPVPMSPPAALKTQLLSEAGKWRAALGALGFVGGLVGREEETVRQFFTRHLGTEVTERLVAPFVSGVYAGDVDQLSAQAAFRRVFEFAQLGGGLAAGGILARRQAPPKAPPDPSLPETKTGQLGSFREGLEMLPRAIASQLGDRLKLQWRLTHLEITPQQTYLAHFNTPDGPQQIATRTLILTTPAPITADLLKPLTPALHGVLKEIYYPPVACVVLAYPRAASARPLEGFGHLIPRNQGIRTLGTIWSSCLFPGRTPEGEHLLTNVIGGATDPGIAQLDPEEIAQAVHQDLCKILIRPEFTPKILAVRLWKQAIPQYTLGHLQRLATLEQELSKFPGLHILANYTDGVALGDCVKRGVAVAQKIRSRE | 69%
5 | R85A + V160C + A162C + V305M + L327T + F360M: CyPPO16 variant (protein, Synthetic (Protoporphyrinogen IX oxidase (CyPPO16) of Spirulina subsalsa), CyPPO16 variant) MLDSLIVGAGISGLSAAHTLQKQQTQFLVTESQGRVGGNITTNRQGDYLWEEGPNSFAPTEDLLRLAVEVGLKEDLVFADRRLPAFVYWNQQLHPVPMSPPAALKTQLLSEAGKWRAALGALGFVGGLVGREEETVRQFFTRHLGTEVTERLVAPFVSGCYCGDVDQLSAQAAFRRVFEFAQLGGGLAAGGILARRQAPPKAPPDPSLPETKTGQLGSFREGLEMLPRAIASQLGDRLKLQWRLTHLEITPQQTYLAHFNTPDGPQQIATRTLILTTPAPITADLLKPLTPALHGVLKEIYYPPMACVVLAYPRAASARPLEGFGHTIPRNQGIRTLGTIWSSCLFPGRTPEGEHLLTNMIGGATDPGIAQLDPEEIAQAVHQDLCKILIRPEFTPKILAVRLWKQAIPQYTLGHLQRLATLEQELSKFPGLHILANYTDGVALGDCVKRGVAVAQKIRSRE | 13%
6 | L327T: CyPPO16 variant (protein, Synthetic (Protoporphyrinogen IX oxidase (CyPPO16) of Spirulina subsalsa), CyPPO16 variant) MLDSLIVGAGISGLSAAHTLQKQQTQFLVTESQGRVGGNITTNRQGDYLWEEGPNSFAPTEDLLRLAVEVGLKEDLVFADRRLPRFVYWNQQLHPVPMSPPAALKTQLLSEAGKWRAALGALGFVGGLVGREEETVRQFFTRHLGTEVTERLVAPFVSGVYAGDVDQLSAQAAFRRVFEFAQLGGGLAAGGILARRQAPPKAPPDPSLPETKTGQLGSFREGLEMLPRAIASQLGDRLKLQWRLTHLEITPQQTYLAHFNTPDGPQQIATRTLILTTPAPITADLLKPLTPALHGVLKEIYYPPVACVVLAYPRAASARPLEGFGHTIPRNQGIRTLGTIWSSCLFPGRTPEGEHLLTNFIGGATDPGIAQLDPEEIAQAVHQDLCKILIRPEFTPKILAVRLWKQAIPQYTLGHLQRLATLEQELSKFPGLHILANYTDGVALGDCVKRGVAVAQKIRSRE | 68%
7 | F360T: CyPPO16 variant (protein, Synthetic (Protoporphyrinogen IX oxidase (CyPPO16) of Spirulina subsalsa), CyPPO16 variant) MLDSLIVGAGISGLSAAHTLQKQQTQFLVTESQGRVGGNITTNRQGDYLWEEGPNSFAPTEDLLRLAVEVGLKEDLVFADRRLPRFVYWNQQLHPVPMSPPAALKTQLLSEAGKWRAALGALGFVGGLVGREEETVRQFFTRHLGTEVTERLVAPFVSGVYAGDVDQLSAQAAFRRVFEFAQLGGGLAAGGILARRQAPPKAPPDPSLPETKTGQLGSFREGLEMLPRAIASQLGDRLKLQWRLTHLEITPQQTYLAHFNTPDGPQQIATRTLILTTPAPITADLLKPLTPALHGVLKEIYYPPVACVVLAYPRAASARPLEGFGHLIPRNQGIRTLGTIWSSCLFPGRTPEGEHLLTNTIGGATDPGIAQLDPEEIAQAVHQDLCKILIRPEFTPKILAVRLWKQAIPQYTLGHLQRLATLEQELSKFPGLHILANYTDGVALGDCVKRGVAVAQKIRSRE | 25%
8 | F360M: CyPPO16 variant (protein, Synthetic (Protoporphyrinogen IX oxidase (CyPPO16) of Spirulina subsalsa), CyPPO16 variant) MLDSLIVGAGISGLSAAHTLQKQQTQFLVTESQGRVGGNITTNRQGDYLWEEGPNSFAPTEDLLRLAVEVGLKEDLVFADRRLPRFVYWNQQLHPVPMSPPAALKTQLLSEAGKWRAALGALGFVGGLVGREEETVRQFFTRHLGTEVTERLVAPFVSGVYAGDVDQLSAQAAFRRVFEFAQLGGGLAAGGILARRQAPPKAPPDPSLPETKTGQLGSFREGLEMLPRAIASQLGDRLKLQWRLTHLEITPQQTYLAHFNTPDGPQQIATRTLILTTPAPITADLLKPLTPALHGVLKEIYYPPVACVVLAYPRAASARPLEGFGHLIPRNQGIRTLGTIWSSCLFPGRTPEGEHLLTNMIGGATDPGIAQLDPEEIAQAVHQDLCKILIRPEFTPKILAVRLWKQAIPQYTLGHLQRLATLEQELSKFPGLHILANYTDGVALGDCVKRGVAVAQKIRSRE | 83%

From patent US11219221B2 (FarmHannong Co., Ltd., priority 2017, dated 2022)
